According to article PMC5638582:

Molecular target: Erv1 with a C-terminal histidine tag (Erv1-His) (S. cerevisiae) (UniProt P27882)
Assay: pull-down

Sequence of UniProt P27882 (P27882 whole entry): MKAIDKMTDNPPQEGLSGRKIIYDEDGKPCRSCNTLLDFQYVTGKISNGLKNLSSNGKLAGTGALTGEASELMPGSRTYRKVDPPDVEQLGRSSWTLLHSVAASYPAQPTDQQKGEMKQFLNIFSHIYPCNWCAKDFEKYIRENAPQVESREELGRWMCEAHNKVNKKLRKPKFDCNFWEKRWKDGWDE

Work on “Osm1 (fumarate reductase), endogenous mitochondrial form (from UniProt P21375 33-501) (enzyme)” yielded a fraction copurified of 10%.
